Results as given in patent US20160333110A1 (CHIOME BIOSCIENCE, published 2016).

T1: human TROP-2 (hTROP-2) endogenously expressed on the cell surface of human cancer cell lines (human, UniProt P09758 27-323)
T1 construct: also called TACSTD2; PK-59 cells
T1 sequence: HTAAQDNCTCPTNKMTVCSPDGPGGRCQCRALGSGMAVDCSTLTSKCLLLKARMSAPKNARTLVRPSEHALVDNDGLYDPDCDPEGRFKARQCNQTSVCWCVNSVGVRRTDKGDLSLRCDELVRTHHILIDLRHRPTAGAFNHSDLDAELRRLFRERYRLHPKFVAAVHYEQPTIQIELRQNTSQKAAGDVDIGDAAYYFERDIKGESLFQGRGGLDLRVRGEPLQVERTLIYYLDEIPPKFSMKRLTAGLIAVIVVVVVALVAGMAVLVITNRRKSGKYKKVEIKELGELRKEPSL

T2: recombinant hTACSTD2-Fc-His protein (Creative BioMart) (human, UniProt P09758 27-274, limits assumed)
T2 construct: bought protein; also called hTROP-2 (low-density antigen-coated ELISA); not shown: Fc part of the bought fusion protein; not described; His tag
T2 sequence: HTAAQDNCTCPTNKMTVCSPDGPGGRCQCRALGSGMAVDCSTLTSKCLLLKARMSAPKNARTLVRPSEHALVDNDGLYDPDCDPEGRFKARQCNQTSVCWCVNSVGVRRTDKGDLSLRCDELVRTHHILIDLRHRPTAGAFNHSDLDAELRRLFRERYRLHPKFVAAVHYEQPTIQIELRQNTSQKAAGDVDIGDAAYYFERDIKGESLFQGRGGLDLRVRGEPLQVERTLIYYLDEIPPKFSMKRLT

T3: mouse TROP-2 protein transiently expressed in CHO-K1 cells (mouse, UniProt Q8BGV3 25-317)
T3 construct: whole, on cells
T3 sequence (looked up): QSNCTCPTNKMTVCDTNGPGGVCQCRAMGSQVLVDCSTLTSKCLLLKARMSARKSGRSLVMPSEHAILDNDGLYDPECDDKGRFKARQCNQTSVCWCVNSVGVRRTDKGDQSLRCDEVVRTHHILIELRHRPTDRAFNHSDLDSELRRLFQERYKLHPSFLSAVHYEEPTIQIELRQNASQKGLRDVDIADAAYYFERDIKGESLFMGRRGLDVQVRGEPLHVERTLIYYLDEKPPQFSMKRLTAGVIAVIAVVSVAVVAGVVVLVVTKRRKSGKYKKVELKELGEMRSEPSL

T4: human TROP-1/EpCAM protein transiently expressed in CHO-K1 cells (human, UniProt P16422 24-314)
T4 construct: whole, on cells; also called human EpCAM/TROP-1; hEpCAM; not shown: C-terminal myc/His tag from pcDNA3.1-hEpCAM-myc/His
T4 sequence (looked up): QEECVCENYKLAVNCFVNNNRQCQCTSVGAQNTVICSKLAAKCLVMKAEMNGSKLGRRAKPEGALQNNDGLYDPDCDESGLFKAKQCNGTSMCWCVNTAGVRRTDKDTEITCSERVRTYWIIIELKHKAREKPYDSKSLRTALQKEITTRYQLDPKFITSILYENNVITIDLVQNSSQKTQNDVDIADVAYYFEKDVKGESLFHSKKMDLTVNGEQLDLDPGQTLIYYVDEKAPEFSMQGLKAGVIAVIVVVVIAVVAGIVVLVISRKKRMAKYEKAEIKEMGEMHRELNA


Legend:
[1] = target: T1, human TROP-2 (hTROP-2) endogenously …; assay: FACS on PK-59 cells, 0.1 µg antibody
Method: (§1) Cancer cells were removed from a culture dish by a trypsin treatment, and a cell suspension was then prepared (cell density: 2×10⁶ cells/mL). An anti-hTROP-2 monoclonal antibody (0.1 μg) was added to 100 μL of the cell suspension, and they were then reacted at 4° C. for 20 minutes. The reaction solution was washed with PBS, and it was then reacted with PE-labeled anti-mouse IgG (BD Biosciences Pharmingen) (0.1 μg) (at 4° C. for 30 minutes). Thereafter, the resultant was analyzed by FACSCalibur (Becton, Dickinson and Company).
(§2) Subsequently, the reactivity of the generated anti-hTROP-2 monoclonal antibodies with human cancer cell lines (in which an hTROP-2 protein was endogenously expressed on the cell surface) was examined by FACS analysis.

[2] = target: T2, recombinant hTACSTD2-Fc-His protein …; assay: low-density antigen-coated ELISA, plate coated with 0.1 µg/mL hTACSTD2-Fc-His
Method: Furthermore, antigen affinity was also examined by an ELISA method. ELISA was carried out using an ELISA plate which was coated with the recombinant protein of the hTROP-2 extracellular region as described in Example 3. […] Thereafter, the resultant was washed with a washing buffer (PBS containing 0.05% Tween 20), and a blocking buffer (PBS containing 2% skim milk and 0.05% Tween 20) was then added thereto (200 μl/well) to block it (at room temperature for 1 hour). The resultant was washed with a washing buffer. […] The obtained dilution samples were each added in an amount of 50 μl/well to the above-described ELISA plate (at room temperature for 2 hours). […] After the mixture had been washed with a washing buffer, a TMB (3,3′,5,5′-tetramethylbenzidine: SIGMA) substrate solution was added (50 μl/well) to the resultant to carry out a color reaction. Then, 1 M sulfuric acid (25 μl/well) was added to the reaction product to terminate the reaction. Using Microplate reader Model 550 (BioRad), an absorbance at 450 nm was measured with an absorbance at 655 nm used as a reference.

[3] = target: T1, human TROP-2 (hTROP-2) endogenously …; assay: FACS on BxPC-3 cells, 0.1 µg antibody
Method: as §1, §2

[4] = target: T3, mouse TROP-2 protein transiently …; assay: FACS on CHO-K1 cells transiently expressing mouse TROP-2
From the text: (§3) Specifically, each of an expression vector (mouse TROP-2-pcDNA3.1(+), furnished by the Institute of Molecular and Cellular Biosciences, the University of Tokyo) comprising the full-length cDNA of a mouse TROP-2 gene (GenBank accession No. NM_020047, Y08830), and an expression vector (pcDNA3.1-hEpCAM-myc/His) comprising the full-length cDNA of a human TROP-1/EpCAM gene (GenBank accession No. NM_002354), was transiently introduced into CHO-K1 cells, using Lipofectamine2000 reagent (Invitrogen). Thereafter, 24 to 48 hours later, the cells were removed from a culture dish by treating them with trypsin, and a cell suspension was then prepared. The thus prepared cell suspension was successively reacted with the produced anti-hTROP-2 monoclonal antibody (0.1 μg) and with PE-labeled anti-mouse IgG, and it was then analyzed by FACSCalibur.

[5] = target: T4, human TROP-1/EpCAM protein transiently …; assay: FACS on CHO-K1 cells transiently expressing human EpCAM/TROP-1
From the text: as §3

mean fluorescence intensity, times that with PE-labeled anti-mouse IgG alone [1] | EC50 [2] | mean fluorescence intensity, times that with PE-labeled anti-mouse IgG alone [3] | binding result [4] | binding result [5] | Binder
59 times | 0.041 µg/mL | 25 times | no binding (tested: 0.1 µg antibody) | no binding (tested: 0.1 µg antibody) | anti-hTROP-2 monoclonal antibody clone T6-16 (antibody, mouse IgG2a, V domains shown, mouse IgG2a, hybridoma FERM BP-11346; also called T6-16 antibody) VH: EVQLQQSGPELVKPGASVKISCKASGYTFTDYNMHWVKQSHGKNLEWIGYIYPYNGGTGYNQRFKSRATMTVDKSSSTAYMELRSLTSDDSAVYYCAREDYGSSPSYAMDYWGQGTSVIVSS VL: DVVMTQTPLSLPVSLGDQASISCRSSQSLVHGNGNTYLHWYLQKPGQSPKLLIYKVSNRFSGVPDRFSGSGSGTDFTLKISRVEAEDLGVYFCSQTTHVPTFGSGTKLEIK
44 times | 0.012 µg/mL | 45 times | no binding (tested: 0.1 µg antibody) | no binding (tested: 0.1 µg antibody) | anti-hTROP-2 monoclonal antibody clone K5-70 (antibody, mouse IgG2a, V domains shown, mouse IgG2a, hybridoma FERM BP-11251; also called K5-70 antibody; mouse K5-70 antibody) VH: QVQLQQPGAELVRPGASVKLSCKASGYTFTIYWINWVKQRPGQGLEWIGNIYPSDSYTNYNQKFKDKATLTVDKSSSTAYMQLSSPTSEDSAVYYCTRTSMADYWGQGTTLTVSS VL: DILLTQSPAILSVSPGERVSFSCRASQSIGTSIHWYQQRTNGSPRLLIKYASESISGIPSRFSGSGSGTDFTLSINSVESEDIADYYCQQSNSWPFTFGSGTKLEIK
